{
  "source": "paper PMC9601230",
  "about": "(mBio, 2022)",
  "key": {"[1]": {"molecular_target": "the molecule itself", "experiment": "SEC; analytical Superdex 75 10/300GL, 0.3 mL/min, 20 mM Tris pH 8.0, 200 mM NaCl, 0.5 mM TCEP; 100 uL of protein at 2 mg/mL loaded; calibrated with protein standards"}, "[2]": {"molecular_target": "T1, DrRuvC (Deinococcus radiodurans, UniProt Q9RX75 1-179)", "T1 sequence": "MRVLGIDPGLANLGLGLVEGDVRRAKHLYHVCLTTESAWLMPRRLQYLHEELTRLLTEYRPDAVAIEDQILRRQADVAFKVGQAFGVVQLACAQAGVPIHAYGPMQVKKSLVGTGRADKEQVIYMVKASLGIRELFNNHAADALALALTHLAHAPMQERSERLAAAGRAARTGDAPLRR", "experiment": "EMSA; EMSA: 100 nM 6-FAM substrate, 50 mM Tris-HCl pH 8.0, 125 mM NaCl, 10 ug/mL BSA, 1 mM TCEP, 5% glycerol, 30 C 10 min; 5% native PAGE in 0.5x Tris-borate", "details": "protein: recombinant, tags: N-terminal His-MBP-TEV, removed by TEV, chain copies: 2, label: 5'-6-FAM on J31-1"}, "[3]": {"molecular_target": "T1, DrRuvC", "experiment": "EMSA; no obvious specific complex band; EMSA: 100 nM 6-FAM substrate, 50 mM Tris-HCl pH 8.0, 125 mM NaCl, 10 ug/mL BSA, 1 mM TCEP, 5% glycerol, 30 C 10 min; 5% native PAGE in 0.5x Tris-borate", "details": "protein: recombinant; tags: N-terminal His-MBP-TEV, removed by TEV; chain copies: 2; label: 5'-6-FAM on J31-1; blunt, nick between J31-5 and J31-7"}},
  "data": [
    {"binder": "RuvC from Deinococcus radiodurans (enzyme, UniProt Q9RX75 1-179, looked up, Holliday junction resolvase RuvC, Deinococcus radiodurans, full-length gene, residues 1 to 179, amplified from genomic DNA; Expressed from pET28-HMT (His-MBP-TEV); tag removed with TEV protease, so residues of the TEV site may be left at the N-terminus; also called DrRuvC; dr0440; source: E. coli Rossetta (DE3), purified (HisTrap, TEV cleavage, HisTrap, Heparin, Superdex 75); not shown: His6, …) MRVLGIDPGLANLGLGLVEGDVRRAKHLYHVCLTTESAWLMPRRLQYLHEELTRLLTEYRPDAVAIEDQILRRQADVAFKVGQAFGVVQLACAQAGVPIHAYGPMQVKKSLVGTGRADKEQVIYMVKASLGIRELFNNHAADALALALTHLAHAPMQERSERLAAAGRAARTGDAPLRR", "values": [
      {"measurement": "stoichiometry N", "setting": "[1]", "result": 2}
    ]},
    {"binder": "mobile HJ (HJ31) (structured_DNA) DNA 1: GCTAGCCACAGCCATTCGTACGATTGCGGGA DNA 2: TCCCGCAATCGTACGAAACCGAGCACGATCT DNA 3: AGATCGTGCTCGGTTTCGTACCAGATGCCAT DNA 4: ATGGCATCTGGTACGAATGGCTGTGGCTAGC", "values": [
      {"measurement": "Kd", "setting": "[2]; four-way junction with mobile homologous core, 4 strands", "result": "~150", "unit": "nM"}
    ]},
    {"binder": "nicked HJ (structured_DNA) DNA 1: GCTAGCCACAGCCATTCGTACGATTGCGGGA DNA 2: TCCCGCAATCGTCCGTTTCCGAGCACGATCT DNA 3: AGATCGTGCTCGGAAA DNA 4: GCCTGCAGATGCCAT DNA 5: ATGGCATCTGCAGGCAATGGCTGTGGCTAGC", "values": [
      {"measurement": "Kd", "setting": "[2]; 3'-OH and 5'-OH at nick, four-way junction, nick in strand opposite J31-1, 5 strands", "result": "~150", "unit": "nM"}
    ]},
    {"binder": "Y-junction (structured_DNA) DNA 1: GCTAGCCACAGCCATTCGTACGATTGCGGGA DNA 2: TCCCGCAATCGTCCGTTTCCGAGCACGATCT DNA 3: AGATCGTGCTCGGAAAAATGGCTGTGGCTAGC", "values": [
      {"measurement": "Kd", "setting": "[2]; three-way junction, 3 strands", "result": "~425", "unit": "nM"}
    ]},
    {"binder": "immobile HJ (structured_DNA) DNA 1: GCTAGCCACAGCCATTCGTACGATTGCGGGA DNA 2: TCCCGCAATCGTCCGTTTCCGAGCACGATCT DNA 3: AGATCGTGCTCGGAAAGCCTGCAGATGCCAT DNA 4: ATGGCATCTGCAGGCAATGGCTGTGGCTAGC", "values": [
      {"measurement": "Kd", "setting": "[2]; four-way junction, 4 strands", "result": "~150", "unit": "nM"}
    ]},
    {"binder": "replication fork (structured_DNA) DNA 1: GCTAGCCACAGCCATTCGTACGATTGCGGGA DNA 2: TCCCGCAATCGTCCGTTTCCGAGCACGATCT DNA 3: AGATCGTGCTCGGAAA DNA 4: AATGGCTGTGGCTAGC", "values": [
      {"measurement": "Kd", "setting": "[2]; three-way junction with nick at junction, 4 strands", "result": "~410", "unit": "nM"}
    ]},
    {"binder": "nicked duplex (dsDNA) DNA 1: GCTAGCCACAGCCATTCGTACGATTGCGGGA DNA 2: TCCCGCAATCGTACG DNA 3: AATGGCTGTGGCTAGC", "values": [
      {"measurement": "Kd", "setting": "[3]", "result": "~408", "unit": "nM"}
    ]}
  ]
}
